The record followed here is US20080145931A1, “Mature Dendritic Cell Compositions and Methods of Culturing Same” (Argos Therapeutics, Inc., priority 2004, published 2008).

The subject of data set [1] is DCs. Nature of the data set: IL-12p70 and IL-10 secretion by DCs undergoing maturation (ELISA of culture supernatants). The class given is cell-based, human. As to the method: Human PBMCs were isolated from Leukapheresis collections from healthy volunteers provided by Life Blood (Memphis, Tenn.). PBMCs were prepared by Ficoll-Histopaque density centrifugation and washed four times in PBS at room temperature. 2×10^8 PBMCs were re-suspended in 30 ml AIM-V medium and allowed to adhere to […] plastic flasks for 2 hours at 37° C. Non-adherent cells were removed and remaining cells cultured in X-VIVO 15 medium, supplemented with GM-CSF (1000 U/ml) and IL-4 (1000 U/ml), for 5-6 days at 37 C, 5% CO2.
Prior to electroporation, DCs were harvested and washed in PBS and then re-suspended in chilled Viaspane (Barr Laboratories) at 4×10^7/ml in 0.5 ml or 2.5×10^7/ml in 0.2 ml and placed on ice. DCs were mixed with mRNA (1 or 2 μg/10^6 for mRNA encoding antigen and 4 μg/10^6 for CD40L mRNA) and placed in a 4 mm gap electroporation cuvette and electroporated using Biorad apparatus. Immediately after electroporation, DCs were washed in X-VIVO 15 medium and finally re-suspended in X-VIVO 15 supplemented with GM-CSF (800 U/ml) and IL-4 (500 U/ml) at 1×10^6/ml and cultured for either 4 or 24 hours at 37° C. in low adherence six well plates (BD Biosciences, Franklin Lakes, N.J.). Additional maturation stimuli, described below, were also added at this point.
Following electroporation, DCs transfected with CD40L mRNA were treated with IFN-γ (1000 U/ml) or TNF-α (10 ng/ml) or a combination of IFN-γ and PGE2 (1 μg/ml). By comparison, immature DCs were transfected with various antigen-encoding mRNAs and were then treated with a “cytokine cocktail” comprising of TNF-α (10 ng/ml), IL-1β (10 ng/ml), IL-6 (100 ng/ml) and PGE2 (1 μg/ml) or soluble CD40L (200 ng/ml) plus enhancer (1 μg/ml) with either simultaneous or sequential addition of 1000 U/ml IFN-γ.
The method as laid out by BD Pharmingen for IL-12 and IL-10 ELISA sets (BD Pharmingen) using BD Opt EIA reagent set B pH 9.5. Briefly, ELISA plates (BD Biosciences) were coated with anti-IL-12p70 or anti-IL-10 ELISA capture antibody in coating buffer for 24 hours at 4° C. Plates underwent blocking with 200 μl per well 10% FCS/PBS for one hour prior to the addition of standards (BD Pharmingen) and supernatant samples, in duplicate, at 100 μl per well and incubated at room temperature for 2 hours. Plates were washed and anti-cytokine detection antibody added, incubated for one hour, the plates washed and solutions replaced with 100 μl of streptavidin-HRP and further incubated for one hour at room temperature. […] Plate analysis undertaken using Bio-Tek instruments ELx800 plate reader with KC junior software (Winooski, Vt.). […] Because the assays were set up so that 1 ml corresponds to 10^6 DCs, the results can also be expressed as number of picograms/10^6 DCs. […]
On the technique in general: ELISA stands for enzyme-linked immunosorbent assay.

Data set [2] concerns DCs. Briefly: Transwell migration assay of DCs to lymph node chemokines CCL19 and 21. The class given is cell-based, human. The note with it: 1 μg/ml PGE2 in addition to IFN-γ, CD40L mRNA transfected DCs; FIG. 8. The protocol:
Chemotaxis of DCs was measured by migration through a 8 μm pore size polycarbonate filter in 24 well transwell chambers (coming Costar, Acton, MA). 5% human AB serum in Iscoves modified Dulbecco's medium or AIM-V medium containing 3-300 ng/ml CCL19, 5-250 ng/ml CCL21, a combination of both or medium alone was added to the lower chamber. 1−5×10^5 DCs in 0.1 ml were added to the upper chamber and incubated for 2-3 hours at 37° C. Lower chamber harvested into 5 ml tubes (BD Biosciences) and re-suspended in 0.1 ml PBS and viable cell counts undertaken using trypan blue.

The subject of data set [3] is NKT-cells. Briefly: Expansion of NKT-cells in PBMC cultures, CD1d/KRN7000 tetramer staining. The class given is cell-based, human. Conditions: 100 ng/ml KRN7000 pulsed on MART-1 mRNA-loaded CD40L base process DCs, versus vehicle; FIG. 15a. The protocol:
(§1) 100 ng/ml of KRN7000 was pulsed onto the CD40L base process DCs immediately post electroporation in combination with 500 U/ml IFN-γ and 1 μg/ml PGE2, for 24 hrs of culture.
(§2) DCs were generated as described above, employing the ‘CD40L base process’, and loaded with mRNA encoding MART-1. Post electroporation, DCs were incubated with KRN7000, IFN-γ and PGE2. DCs and PBMCs were co-cultured at a 1:10 ratio in the presence of 20 U/ml IL-2. PBMCs were restimulated three times under the same conditions, and the frequency of CTL induction determined by staining with MART-1/A2 tetramers, and the expansion of NKT-cells enumerated using KRN7000/CD1d tetramers by FACS.

Data set [4] has as its system MART reactive T-cells. Nature of the data set: Induction of MART-1 specific CTLs in PBMC cultures, MART-1/HLA-A2 tetramer staining. Conditions: KRN7000 pulsed on MART-1 mRNA transfected DC, versus vehicle; FIG. 15b. It is filed as cell-based, human. The protocol: as §1, §2
The target in data set [5] is human CD40 (the receptor for CD40L) on monocyte-derived dendritic cells (human) (UniProt P25942). Briefly: cell-based or functional assay.
Sequence of UniProt P25942 (P25942 21-277 limits assumed): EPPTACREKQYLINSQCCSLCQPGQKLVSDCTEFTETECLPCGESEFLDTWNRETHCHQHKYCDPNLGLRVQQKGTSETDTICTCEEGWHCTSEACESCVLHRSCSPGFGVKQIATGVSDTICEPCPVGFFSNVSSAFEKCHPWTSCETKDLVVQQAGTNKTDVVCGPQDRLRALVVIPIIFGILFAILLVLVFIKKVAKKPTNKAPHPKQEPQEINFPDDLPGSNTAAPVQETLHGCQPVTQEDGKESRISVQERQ
Data set [6] concerns the target human CD40L protein translated from transfected CD40L mRNA (CD40L WT, >400 nucleotide polyA tail) (human) (UniProt P29965). Nature of the data set: cell-based or functional assay.

For “pCR2.1 CD40L WT Delta X-E: CD40L RNA transcribed from plasmid modified by removal of XbaI-EcoRV fragment with three cryptic ATG codons (sense GCATGATCGAAACATACAACC; RNA transcript of DNA sequence, chemistry not fully specified)”, the “induction of IL-12 expression by transfected DCs” value in data set [1] (two independent DC transfection experiments, about 20 hrs post transfection, FIG. 18) is reported as “performed better than the current CD40L reference standard”. Turning to `CCCCC[C@H](O)/C=C/[C@H]1[C@H](O)CC(=O)[C@@H]1C/C=C\CCCC(=O)O` [PGE2], the DC migration result in data set [2] is listed as “enables the maturing DCs to migrate”. Regarding `CCCCCCCCCCCCCCCCCCCCCCCCCC(=O)N[C@@H](CO[C@H]1O[C@H](CO)[C@H](O)[C@H](O)[C@H]1O)[C@H](O)[C@H](O)CCCCCCCCCCCCCC` [KRN7000, (2S,3S,4R)-1-O-(alpha-D-galactopyranosyl)-2-(N-hexacosanoylamino)-1,3,4-octadecanetriol], the “frequency of NKT-cells in PBMC cultures” value in data set [3] is given as “increase the frequency of NKT-cells”. In addition, the “frequency of MART reactive T-cells” value in data set [4] was “significantly increases the frequency of MART reactive T-cells”. “human CD40L protein translated from transfected CD40L mRNA (CD40L WT, >400 nucleotide polyA tail) (from UniProt P29965 1-261) (ligand)”: in data set [5], the IL-12p70 (pg/ml), "Cocktail" matured and reactivated DCs co-cultured with HeLa/>400 polyA + IFN-γ was 26.3 pg/mL; the IL-12p70 (pg/ml), immature DCs co-cultured with HeLa/>400 polyA + IFN-γ was 372 pg/mL.

For “blocking CD40L monoclonal antibody 24-31 (eBioscience)”, in data set [6], the IL-12p70 (pg/ml), "Cocktail" matured and reactivated DCs co-cultured with HeLa/>400 polyA + IFN-γ + 24-31 was determined as 2.5 pg/mL; the IL-12p70 release from CD40L-mRNA-transfected DCs cultured with IFN-γ and 10 or 50 µg/ml blocking anti-CD40L antibody came out at 50%. Regarding TNF-α, in data set [1] (10 ng/ml TNF-α substituted for IFN-γ, CD40L mRNA transfected DCs, FIG. 5b), the IL-12 production entry is on record as “supports IL-12 production, but at reduced levels”.

B1: IFN-γ: IFN-γ purchased from R&D Systems, first maturation signal (protein, listed as Homo sapiens)
chain: MKYTSYILAFQLCIVLGSLGCYCQDPYVKEAENLKKYFNAGHSDVADNGTLFLGILKNWKEESDRKIMQSQIVSFYFKLFKNFKDDQSIQKSVETIKEDMNVKFFNSNKKKRDDFEKLTNYSVTDLNVQRKAIHELIQVMAELSPAAKTGKRKRSQMLFQGRRASQ
B1: the “IFN-γ required to support optimal induction of IL-12p70” value in data set [1] (DCs transfected with 4 μg CD40L mRNA per million cells, FIG. 4) is recorded as “at least 100 U/ml”. For the same molecule, the IL-10 production result in data set [1] (IFN-γ versus TNF-α as co-maturation factor, CD40L mRNA transfected DCs, FIG. 5c) was “lower levels of IL-10 production than does TNF-α”.
